Experimental data from patent publication US20230112123A1 (published 2023).

T1: human CD70 (human, UniProt P32970 1-193)
T1 chain: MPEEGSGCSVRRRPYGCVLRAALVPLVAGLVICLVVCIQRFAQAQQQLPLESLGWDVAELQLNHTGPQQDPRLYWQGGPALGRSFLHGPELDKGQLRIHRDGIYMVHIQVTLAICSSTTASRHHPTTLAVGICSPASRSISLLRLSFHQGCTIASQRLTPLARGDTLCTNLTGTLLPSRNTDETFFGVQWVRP


Target: T1, human CD70
Assay: FACS blocking of CD27(ECD)-Fc binding; CHO-CD70 cells

Row | IC50 | Binder
1 | 2.39 nM | Cusatuzumab (antibody, V domains shown) VH: EVQLVESGGGLVQPGGSLRLSCAASGFTFSVYYMNWVRQAPGKGLEWVSDINNEGGTTYYADSVKGRFTISRDNSKNSLYLQMNSLRAEDTAVYYCARDAGYSNHVPIFDSWGQGTLVTVSS VL: QAVVTQEPSLTVSPGGTVTLTCGLKSGSVTSDNFPTWYQQTPGQAPRLLIYNTNTRHSGVPDRFSGSILGNKAALTITGAQADDEAEYFCALFISNPSVEFGGGTQLTVLG
2 | 2.04 nM | IMM40H (antibody, V domains shown) VH: QVQLVQSGAEVKKPGASVKVSCKVSGYTFTDSALHWVRQAPGKGLEWMGVISTYDGDTDYNQKFKGRVTMTEDTSTDTAYMELSSLRSEDTAVYYCARRGYYDYDWFPYWGQGTLVTVSA VL: DIVLTQSPASLAVSPGQRATITCRASKSVSASGYSFLHWYQQKPGQPPKLLIYLASNLESGVPARFSGSGSGTDFTLTINPVEANDTANYYCQHSRELPPTFGGGTKVEIKR
